Experimental data from paper PMC12442453.

What was measured:
[1] = target: T1, human EPOR ectodomain (ECD) fused to a human Fc domain (EPOR-Fc), P19235; assay: BLI; settings: chain shown with the change; solution-phase Db-Fc, immobilized EPOR-Fc
T1 chain: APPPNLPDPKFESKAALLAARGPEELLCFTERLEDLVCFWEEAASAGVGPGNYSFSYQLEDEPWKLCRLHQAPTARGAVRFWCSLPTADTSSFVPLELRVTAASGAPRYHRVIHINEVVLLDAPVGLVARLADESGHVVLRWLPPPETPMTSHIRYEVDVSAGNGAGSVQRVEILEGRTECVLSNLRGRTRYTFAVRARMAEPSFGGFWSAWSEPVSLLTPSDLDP

[2] = target: VL–VH 1.1 without an Fc domain; assay: crystal structure; VL–VH 1.1 alone, space group P21, 2.06 Å, four chains in the asymmetric unit; 20% PEG8000, 100 mM CHES
[3] = target: T2, human EPOR, endogenous on TF-1 cells (human (endogenous in TF-1)) (UniProt P19235)
T2 sequence: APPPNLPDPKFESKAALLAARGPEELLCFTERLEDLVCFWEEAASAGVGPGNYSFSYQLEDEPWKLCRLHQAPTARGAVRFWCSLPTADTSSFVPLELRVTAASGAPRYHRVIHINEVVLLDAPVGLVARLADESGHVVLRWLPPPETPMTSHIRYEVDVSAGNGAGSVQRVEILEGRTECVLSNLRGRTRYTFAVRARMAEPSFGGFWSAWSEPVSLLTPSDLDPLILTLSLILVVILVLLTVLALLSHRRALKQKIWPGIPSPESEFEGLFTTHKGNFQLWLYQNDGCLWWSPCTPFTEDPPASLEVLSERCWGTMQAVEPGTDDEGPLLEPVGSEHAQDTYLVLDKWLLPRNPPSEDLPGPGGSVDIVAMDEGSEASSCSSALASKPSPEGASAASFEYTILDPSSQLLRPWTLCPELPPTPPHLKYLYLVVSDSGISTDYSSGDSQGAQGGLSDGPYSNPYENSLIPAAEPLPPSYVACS

B1: Db-Fc 1 L:Y109D; L:I116F; H:Y35R; H:I39M; H:Y59H; H:S63G; H:G114S (protein)
chain 1: EVQLVESGGGLVQPGGSLRLSCAASGFNLRSYYMHWVRQAPGKGLEWVASISPHYGYTYYADSVKGRFTISADTSKNTAYLQMNSLRAEDTAVYYCARHGYSAMDYWGQGTLVTVSS
chain 2: DIQMTQSPSSLSASVGDRVTITCRASQSVSSAVAWYQQKPGKAPKLLIYSASSLYSGVPSRFSGSRSGTDFTLTISSLQPEDFATYYCQQSSDSLFTFGQGTKVEIK
Binder B1 has a Kd [1] of 3.8 nM.

B2: VL–VH 1.1 without an Fc domain (protein)
VH: EVQLVESGGGLVQPGGSLRLSCAASGFNLRSYYMHWVRQAPGKGLEWVASISPYYSYTYYADSVKGRFTISADTSKNTAYLQMNSLRAEDTAVYYCARHGYGAMDYWGQGTLVTVSS
VL: DIQMTQSPSSLSASVGDRVTITCRASQSVSSAVAWYQQKPGKAPKLLIYSASSLYSGVPSRFSGSRSGTDFTLTISSLQPEDFATYYCQQSSYSLITFGQGTKVEIK
In the case of B2, the stoichiometry N [2] is reported as 4.

B3: Db-Fc 1.3 (Fc fusion)
VH: EVQLVESGGGLVQPGGSLRLSCAASGFNLRSYYMHWVRQAPGKGLEWVASISPHYGYTYYADSVKGRFTISADTSKNTAYLQMNSLRAEDTAVYYCARHGYSAMDYWGQGTLVTVSS
VL: DIQMTQSPSSLSASVGDRVTITCRASQSVSSAVAWYQQKPGKAPKLLIYSASSLYSGVPSRFSGSRSGTDFTLTISSLQPEDFATYYCQQSSDSLFTFGQGTKVEIK
Binder B3 has a UT-7/Epo cell proliferation, EC50; Hb-Fc3 fraction of variant 1.3 (putative hexamer) [3] of 1.1 nM, a UT-7/Epo cell proliferation, EC50; purified Db-Fc fraction of variant 1.3 (putative dimer) [3] of 16 nM and a UT-7/Epo cell proliferation, EC50; unfractionated Db-Fcmix 1.3 [3] of 1.8 nM. For the same binder, the UT-7/Epo cell proliferation, maximum response; Hb-Fc3 fraction of variant 1.3 (putative hexamer) [3] was 3.4e+06 RLU, the UT-7/Epo cell proliferation, maximum response; purified Db-Fc fraction of variant 1.3 (putative dimer) [3] was 600000 RLU and the UT-7/Epo cell proliferation, maximum response; unfractionated Db-Fcmix 1.3 [3] was 2.5e+06 RLU.
